Laboratory results: the DeepSol protein solubility set

experiment: soluble on expression in E. coli; label from the status in PepcDB or PDB records

| Sequence | soluble on expression in E. coli |
| --- | --- |
| MSLAESPLEIHVIADSTGETAVRLARAARSQFEGVHWHIVRHPMIGTVPEMVSALEAVSEAHEAGQWVCVVHTLVLPDMRRMVSDACEEMGIRELDLMGPMLEAMEEASGLDADAVPRRPVGVEADYFTRISAMEFAVRNDDGAIPDRLTEADICLVGVSRSGKTPLSIYLGYLGYKTVNVPLVPGIAPPTELAAVDRWRIVGLTIDAQRLLEIRGRRVRGLGGFGNEDGYADLAAIYEELDEVGKIQRRLGCPIIDTTGLALEESATKVIDVVDQRAKTAGTRLRKPAGSYRMRPEGHHHHHH | soluble |
| SNPSSSGGTTKRFRTKFTAEQKEKMLAFAERLGWRIQKHDDVAVEQFCAETGVRRQVLKIWMHNNKN | soluble |
| MNSGYSANIFPSSSSPTLYQSHQLPNPSATMYQATPRDMGKPPVRGKTSPYGFFVKMCYEEHKKKYPNENVQVTEISKKCSEKWKTMVDDEKRRFYELAQKDAERYQAEVSVAAYGGEDAMRKRKRAKKDPHAPKRALSAFFFYSQDKRPEIQAGHPDWKVGQVAQELGKMWKLVPQETKDMYEQKAQADKDRYADEMRNYKAEMQKMSGMDHYDDDNIHHVVHVEDINSQNIS | not soluble |
| MMMMRAFIAENVRGIYAFDEDGKLVGKRYFTDKPEKILDGLLKGELVKDLEEFLNELREKGYDEFIFEHPELSRKAKELGFNATTEFPNLAGERLRSNPEEFLGENWFDDYYNVGVALTRMRIQEQSGARDKMVIQAIEALDDVDKVINLLVSRLREWYSLHFPELDEILPRHPQYVAFVKAIGHRDNVDEEKLRELGLSDEKIKKIIEAKEKTMGAWMDETDIAIVQHFAEEIDRLYKLRKELEDYIDKAMDDVAPNLKALVGAKLGARLISLAGGLKELAMLPSSTIQVLGAEKALFRHLRTGAKPPKHGVIYQYPAINRSPWWQRGKIARALAGKLAIAARVDYFSGEYIAEELKKELEARIKEIKEKYPRPPKRRKEERKGRKPWKEKKKKKKKKKGGRR | soluble |
| MDSDPLGVFPNSPKYHPYYSQTTEFGGVIDLGLSLRTIQHEIYHSSGQIMTCGKGYCSNEGYRRKWGYVKVTMDGLVVGRKVCVLDHGSYSTLAHQLEDMFGMQSVSGLRLFQMESEFCLVYRDEEGLWRNAGDVPWNEFIESVERLRITRRNDAVLPF | not soluble |
| MSWQLALYNGLWRALTPLVRRYLKKRARKAPAYLEHWDERFGQALSPSATGAIWIHAVSVGETRAAQPLVAAIRREWPDAPLLLTQMTPTGRATAEQLYPDAEVRYLPYDYPQAAADFLRAYRPRCGVLMETEIWPNLIHAAAAQRIPLLLANARLSEKSLNGYRKIAGLISPAIAKLTAVAAQTAEDADRLRQLGARSVSVCGSSKYDIEVPEAQRHLAADFRAMAGGRRALLCASTRDGEEALILDAWLAAGAAVGDTLLVLVPRHPERWDEVEKLAAERGLKSQRRSGGAAIAADTRVWLGDSMGEMFGYLGACDVAFIGGSLLPYGCHNLIEPAQVGVPALFGPSVFNFQQAAADSLAAGAGRQVGDAAALVSTALSLMDDPAAGEAMRQGAVRFRDAHRGASERMLALIREAMSAGSEKLEHHHHHH | not soluble |
| MVCDFSQVRLRLADDGWRGTTTRREKDDAEDVEGKVTLRLRYTKTGAMRFLSHLEMIGLFTRAVGRSRIPIRFSRGFHPHPKFSFATALSVGVESWAEYLDMELFPGADPTDIGTRLNGALPEGVRIVEASVIPPGSPSLSVIMDKVRYRVTLPPEAAVGLPELAAAFLARESVPLRREKKGRVLEHHHHHH | not soluble |
| DIRPSKLLTWCQQQTEGYQHVNVTDLTTSWRSGLALCAIIHRFRPELINFDSLNEDDAVENNQLAFDVAEREFGIPPVTTGKEMASAQEPDKLSMVMYLSKFYELFRGTPLRPV | soluble |
| MHLYDKRPGGGASFSQILGQAKNRQGIFFNTTFAVMGHVAKASGRVTETDIRIATLLMDQMRLTGDARKEAQQAFREGKEPDFDLCSSLQAFRAVTQGRQELVQMFIEIQIQTALSDGELDAAEHAILMTVAQELGYGRLEHHHHHH | not soluble |
| MGSDKIHHHHHHMQVVLRIDEKDTRTLQQQVFHQIRALILEGRLRSGDPVPASRELSQQLGVSRNTVLIAYEHLLSEGYLESRANVGTFVSSALPEMSMSTLTSPANDQPSEPSGQSPAPACMPLLEHSVISPNRKKDTVDFWVGRSDGSAFPAREWRRILDTKLRHAKGQLSEYHDPRGLREFRQALADHIGPTRGVLAKPEDVVCVGGSQDGLALIARAFSRTFRTFIHEDPCYLGARAVFSNFSYDTVAVPVDRDGLRVDLLPETGRSLLYVTPSHQYPTGVTLSLERRLQLLQWAERTDSIVIEDDYDGDFRYEGTPLTALRGLDRAGRVIYLGTFSKSFGPAIRIGYLVSTAELSDAFAMWKGILSNGQPWLEQAAMADFITGGSFRRHLRRIRSTYMARRDLLARELTTRIPGTSIHGMRGGMHISARLPKGICAETLQKAAAEHRIAIYRARDCGAWLSPSNTDFDDLLVLGYAAVSDRNIRKAVDVLAHAAEQQSG | not soluble |
| MSLDLFSVRMRAQKNGKHVSGAERIVKKEELETAVKELLNRPKEFDFMNVKVEKVKDFEVVKFNLKISTYSFKSPEEAREFAVKKLTQEGIKEEVAKKAVEILSKGANPKGGNMRGAVLMDIETGERLEEDKERGVRTIHFDWKDRKKVTEKLLKEGYTLRTVDALALTFKNLFCGVVAELCWSDDPDYVTGYVSGKEIGYVRITPLKEKGDPLGGRVYFVSRKELSEIIECLTQKVVLIELEGHHHHHH | soluble |
| GHMTWEHNEFMQMTVKPFLIPADKVAHVQPGNYLDHALLVLTKTGYSAIPVLDTSYKLHGLISMTMMMDAILGLERIEFERLETMKVEEVMNRNIPRLRLDDSLMKAVGLIVNHPFVCVENDDGYFAGIFTRREVLKQLNKQLHRPNGGRKLGRKEAEQ | soluble |
| RGSLTIYIGYSPGVGKTFEMLSNAIELFQSNVDIKIGYIEPHQRDETNALAEQLPKITTNFTKHGSHHFQYLDVDRIIEESPTIVLIDELAHTNISRDRHEKRYMDIEEILNHGIDVHTTLNIQHIESLSSQIELMTGVHVKERVPDYFIMSADVLEVVDISPEQLIKRLKAGKVYKKDRLDVAFSNFFTYAHLSELRTLTLRTVADLMSDKEKVRHNHKTS | not soluble |
| GNGFDVENYKDKEIVIVAGGTGVSPVRGVVEYFAKNSKEAKSVTLIAGFKTPKDILFSEDFKEWKNNINIILTVDSAEGDSNFKEGLVTKYIPELKLQNVKEASAIVVGPPAMMRFSTQGLLDVGFKEENMWISQERKMCCGIGKCGHCKIDDVY | not soluble |
| MSLQNAYWLTNVRLETGYKFNNEVVTGTETALHHLLIQDGKIEKIVLADVPLQTEYETKDAKELLVLPSFVENHFHLDKTKLGGPWEACTPVKNIIERLELEQQELPILAQTTGERAELLLRNILNAGSTHIRTHVNIDPYIGLKNLESVRQTLENMKDAFTYEIVAFPQHGLLRTEAHSLMREAMKMGATLVGGVDPATVDNNIEKSLFDMMEIAVEANADVDLHLHDAGHLGIYTIKKLAQYTEEASWDGRVAVSHAFSLGDVSKEEGADMADLLAERGMSIITTVPINRNMPPVPLLTEKGVPISLGCDSMFDSWGPFGNADIFERVGRLAEKYRWMDEKSLASSLAYITGGKTPLDQEGNQVWPKVGDKADFVFLQATCSAEAIARRAKRPAVMRDGKIVAGSLQHVQGVLIEGHHHHHH | soluble |
| AGMSLTQVSGPVYVVEDNYYVQENSMVYFGAKGVTVVGATWTPDTARELHKLIKRVSRKPVLEVINTNYHTDRAGGNAYWKSIGAKVVSTRQTRDLMKSDWAEIVAFTRKGLPEYPDLPLVLPNVVHDGDFTLQEGKVRAFYAGPAHTPDGIFVYFPDEQVLYGGCILKEKLGNLSFADVKAYPQTLERLKAMKLPIKTVIGGHDSPLHGPELIDHYEALIKAAPQSS | soluble |
| MTQPAAAVAAAAPAQTAPILGECVLKLSRSTTYEPPLYLFPELLPPVPQGTPPLPVWDAVADAVDIAASSWRVADATQLIAAGVAAAGTSGIKPSTGVERRPQAMVTLTSMIAENRLLAAGLDATVLERDAFSSAAIITHLAALQARMGLSDEEGAAIMSNHFINLLAWQKLRELNGPSLHAAVSRAEQKVSDEEAAGSAAFSPSHAAPPPSRKRSRADQDNDERDVWLPSPHPWATEAELAASDGSGRFVAVSEANVEQQVELLRTLAELYHRPWRTLASRGQQTDFVVPPGTVNVTSPFADNSKVPGALLDPATALGWGATLSSSLSTDYFGGVRVAHTACFYAVVLSAGTPTSAGKSVAPAPTRLPLDELTTYFGRESGVRGAAAVAAAAATPIAGALAPYTTHPEVLSRFQFALVLRPVYEHAADANEVRRPDSHLHVGKREPSTDDEASESDADAHQGHAAVLHTKRPHHYTLWLVNYGRNGVRVAGRGWVLSEPRQLQAGDVLIVGSEVQLRVEEHFSAAAARAPVVSDATLNTASVSSSQVKQERIEG | not soluble |
| MGAAAAMLAAVLLLTPITVPAGYPGAVAPATAACPDAEVVFARGRFEPPGIGTVGNAFVSALRSKVNKNVGVYAVKYPADNQIDVGANDMSAHIQSMANSCPNTRLVPGGYSLGAAVTDVVLAVPTQMWGFTNPLPPGSDEHIAAVALFGNGSQWVGPITNFSPAYNDRTIELCHGDDPVCHPADPNTWEANWPQHLAGAYVSSGMVNQAADFVAGKLQ | not soluble |
| MFIESRELVMKHRIPVAKTERYWKGLEEGKVFKTVCKSCGKEHHPPRAECLCGGEVEWVEITGEGVVEAFTTVHTIPAGFEWHREPYTIAIARFGEVRVMGWAKEVRVGDVVRLKPGKDETGVWKVYFEVVLEHHHHHH | soluble |
| MCGVSLSVIIETLYFACRFRMVEKFLNQSVIWCRSGALRHCRTCGRGRAADTAFTLGDGSKRMGGCVQKEKNEAQKGEKGYRFRLFTGK | not soluble |
| MSLKEISVVLVGIGGYGNKYVEYILREGREKGVRISGVVDPYPQNSRFYDELRSLNVPMYNTLEEFYSHHTADLAIISSPIHYHCEQTCTAVRNGSHVLCEKPAAATVKEVKKMIECREKYGKIVAIGYQWSYNPAVLKLKEDILAGKFGKPVLFKTLVLWPRDTAYYRRNSWAGKLKVNNRWVLDSVAGNATAHFLHNMLFLLGEKMEESAYPESMVAELYRANDIESFDTCALKMTVRKIPVLFFATHAVKERKGPVFEYRFEKARVICNYPEYPESEENLLVVYEDGRKEIYGPTDHGSMRKLWVVVDAARGRKEFICTLESAMAHTIAINGAHVSMKEIQDFPTELKRVEGEPPMIWVEGLKEAMERAYEEEKIFSELNLPWAKRGEEVKLENFEGLEGEITEGHHHHHH | soluble |
| MFGNSYGGYLANLCAKIAPWSIDFILDNSSFVNLFGNIFRLIGFGKEIDFTRYHGTYDDTLFKNIFLYLSDKTYWNNNKFSKNYFSNARKIIREPLNKEHLIIQSLYPNPKYILYHSIFDERSPFKNKENFVHILKELNFKVEFFAISQVDNKFIKNLNHGMGLSTKLFFKKHLLQILKEPLQDKICKKEVSYKCDELVYTFKEENHQIILNITN | not soluble |
| MLLAHISDTHFRSRGEKLYGFIDVNAANADVVSQLNALRERPDAVVVSGDIVNCGRPEEYQVARQILGSLNYPLYLIPGNHDDKALFLEYLQPLCPQLGSDANNMRCAVDDFATRLLFIDSSRAGTSKGWLTDETISWLEAQLFEGGDKPATIFMHHPPLPLGNAQMDPIACENGHRLLALVERFPSLTRIFCGHNHSLTMTQYRQALISTLPGTVHQVPYCHEDTDPYYDLSPASCLMHRQVGEQWVSYQHSLAHYAGPWLYDENISCPTEER | soluble |
